Measured values published in patent publication US20220242948A1 (CARTEXELL, published 2022).

What was measured:
[1] = molecular target: T1, mouse L1CAM (mL1CAM) protein fused with the Fc domain (R&D system, Cat No.5674-NC) (mouse, UniProt P11627 20-1123, limits assumed); assay: monoclonal phage ELISA, plate coated with mL1CAM-Fc (3R clones), HRP-anti-M13, absorbance at 450 nm, cut-off 0.4
T1 construct: Bought protein; also called mL1CAM-Fc; antigen mL1CAM; not shown: Fc domain
Experimental: Specifically, the antigen mL1CAM protein was added to 96-well plates, incubated at 4° C. overnight, and then blocked with 2% MPBS at 37° C. for 2 hours. Since the antigen mL1CAM protein was fused with the Fc domain, Fc as an Fc control was also added to the 96-well plates, incubated at 4° C. overnight, and blocked with 2% MPBS at 37° C. for 2 hours. Then, the phages (up to 10¹¹ cfu) were added to the 96-well plates. After incubation at room temperature for 90 minutes, HRP-anti-M13 (Sino Biological, Cat No. 11973-MM05) was diluted in PBS to 1:5000, and added to 96-well plates. After incubation at room temperature for 1 hour, TMB substrate (Sigma, Cat No. T0440) and 2N H2504 (Merck, Cat No.100731) were sequentially added, and the absorbance (OD) at 450 nm was measured. As a result, when the absorbance (A450 nm) cut-off for the antigen mL1CAM was set to at least 0.4 for selection, one clone in the 2nd round, a total of 26 clones in the 3rd round, and a total of 9 clones in the 4th round specifically bound (positive) to the antigen mL1CAM in ELISA (FIG. 3).

[2] = molecular target: T1, mouse L1CAM (mL1CAM) protein fused with …; assay: BLI, Octet system (Forte Bio QK384)
Experimental: (§1) The clone 3R-H8 showing the highest binding affinity among four types of anti-L1CAM scFv was subjected to a conversion procedure, thereby securing the whole IgG1 antibody. Through the Octet system (Forte Bio, Model No. QK384) using the purified whole IgG1 antibody, the antigen-antibody affinity was analyzed for the antigen hL1CAM (Sino biological, Cat No.10140-H08H) protein or mL1CAM (R&D, Cat No. 5674-NC) protein.

[3] = molecular target: T2, human L1CAM protein (hL1CAM, Sino biological, Cat No.10140-H08H) (human, UniProt P32004 20-1120); assay: BLI, Octet system (Forte Bio QK384)
T2 construct: Bought protein used in the Octet assay; also called antigen hL1CAM
T2 sequence (P32004 20-1120 limits assumed): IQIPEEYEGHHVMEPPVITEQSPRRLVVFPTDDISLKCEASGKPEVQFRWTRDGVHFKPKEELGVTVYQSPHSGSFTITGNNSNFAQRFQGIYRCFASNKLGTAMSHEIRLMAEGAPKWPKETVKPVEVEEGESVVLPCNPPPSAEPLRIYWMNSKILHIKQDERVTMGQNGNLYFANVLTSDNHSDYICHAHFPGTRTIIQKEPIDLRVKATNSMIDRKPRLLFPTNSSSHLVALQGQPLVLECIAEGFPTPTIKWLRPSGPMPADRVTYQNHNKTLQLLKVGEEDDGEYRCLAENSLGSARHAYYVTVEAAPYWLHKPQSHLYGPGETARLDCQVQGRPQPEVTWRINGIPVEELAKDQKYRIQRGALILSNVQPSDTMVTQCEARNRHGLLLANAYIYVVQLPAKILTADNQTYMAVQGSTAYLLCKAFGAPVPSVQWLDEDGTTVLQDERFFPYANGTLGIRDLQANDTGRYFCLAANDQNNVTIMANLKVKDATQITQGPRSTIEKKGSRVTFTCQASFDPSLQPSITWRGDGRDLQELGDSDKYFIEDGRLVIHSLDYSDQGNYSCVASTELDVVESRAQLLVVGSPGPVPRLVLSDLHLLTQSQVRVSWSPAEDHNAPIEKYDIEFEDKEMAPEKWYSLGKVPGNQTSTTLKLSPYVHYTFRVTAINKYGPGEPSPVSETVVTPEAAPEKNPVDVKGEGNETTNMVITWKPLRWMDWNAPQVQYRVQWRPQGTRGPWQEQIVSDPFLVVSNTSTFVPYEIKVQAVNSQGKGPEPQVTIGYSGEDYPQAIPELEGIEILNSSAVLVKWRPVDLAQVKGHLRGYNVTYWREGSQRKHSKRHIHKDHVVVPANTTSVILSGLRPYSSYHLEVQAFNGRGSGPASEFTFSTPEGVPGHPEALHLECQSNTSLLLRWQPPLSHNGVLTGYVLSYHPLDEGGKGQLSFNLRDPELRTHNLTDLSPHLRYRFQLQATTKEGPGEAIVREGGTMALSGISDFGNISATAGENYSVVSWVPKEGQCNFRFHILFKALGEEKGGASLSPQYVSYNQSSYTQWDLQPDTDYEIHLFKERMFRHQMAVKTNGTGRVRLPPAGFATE
Experimental: as §1

[4] = molecular target: T2, human L1CAM protein (hL1CAM, Sino …); assay: Octet, AR2G sensor, 3R-H8 loaded as ligand at 5 ug/ml (10 mM acetate pH 5.0), hL1CAM as analyte 0 ~ 200 nM in 1X PBS + 0.09% Tween
Experimental: as §1

[5] = molecular target: T1, mouse L1CAM (mL1CAM) protein fused with …; assay: Octet, AR2G sensor, 3R-H8 loaded as ligand at 5 ug/ml (10 mM acetate pH 6.0), mL1CAM as analyte 0 ~ 100 nM in 1X PBS + 0.09% Tween
Experimental: as §1

[6] = molecular target: T2, human L1CAM protein (hL1CAM, Sino …); assay: Octet, AR2G sensor, 3R-H8 loaded as ligand at 5 ug/ml (10 mM acetate pH 5.0), hL1CAM as analyte 0 ~ 200 nM in 1X PBS + 0.09% Tween; column head kdis(1/s)
Experimental: as §1

[7] = molecular target: T1, mouse L1CAM (mL1CAM) protein fused with …; assay: Octet, AR2G sensor, 3R-H8 loaded as ligand at 5 ug/ml (10 mM acetate pH 6.0), mL1CAM as analyte 0 ~ 100 nM in 1X PBS + 0.09% Tween; column head kdis(1/s)
Experimental: as §1

T1 sequence (P11627 20-1123 limits assumed): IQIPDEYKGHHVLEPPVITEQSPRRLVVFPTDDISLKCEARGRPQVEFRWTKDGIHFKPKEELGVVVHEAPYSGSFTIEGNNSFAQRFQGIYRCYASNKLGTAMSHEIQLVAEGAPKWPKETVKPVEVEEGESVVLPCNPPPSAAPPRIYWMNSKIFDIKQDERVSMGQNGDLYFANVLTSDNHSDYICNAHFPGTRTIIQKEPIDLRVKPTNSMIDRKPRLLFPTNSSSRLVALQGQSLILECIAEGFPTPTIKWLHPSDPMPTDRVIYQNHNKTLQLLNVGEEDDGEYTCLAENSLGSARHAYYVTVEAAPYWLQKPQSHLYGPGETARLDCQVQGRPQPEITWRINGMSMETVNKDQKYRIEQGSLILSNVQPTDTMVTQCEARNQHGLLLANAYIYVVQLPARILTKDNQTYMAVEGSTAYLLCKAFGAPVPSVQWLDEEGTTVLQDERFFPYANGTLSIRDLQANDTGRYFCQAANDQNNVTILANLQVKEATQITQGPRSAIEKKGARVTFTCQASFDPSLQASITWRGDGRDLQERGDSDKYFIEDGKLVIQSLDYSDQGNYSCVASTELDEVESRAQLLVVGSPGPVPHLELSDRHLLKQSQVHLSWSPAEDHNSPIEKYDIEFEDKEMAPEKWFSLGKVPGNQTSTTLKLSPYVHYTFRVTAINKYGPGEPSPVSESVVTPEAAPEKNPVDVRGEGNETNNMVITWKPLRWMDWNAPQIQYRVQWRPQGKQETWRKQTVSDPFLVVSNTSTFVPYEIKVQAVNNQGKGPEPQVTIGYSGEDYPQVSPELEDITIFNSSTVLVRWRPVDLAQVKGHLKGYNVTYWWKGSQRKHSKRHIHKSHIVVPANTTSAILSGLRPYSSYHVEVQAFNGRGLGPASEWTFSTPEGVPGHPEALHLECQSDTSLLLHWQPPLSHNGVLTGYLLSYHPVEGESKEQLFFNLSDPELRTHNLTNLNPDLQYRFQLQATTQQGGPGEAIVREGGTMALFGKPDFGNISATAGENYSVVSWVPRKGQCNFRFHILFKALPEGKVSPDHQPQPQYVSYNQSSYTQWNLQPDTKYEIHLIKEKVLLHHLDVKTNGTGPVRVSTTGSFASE

B1: E7 (scFv)
scFv (VH-linker-VL): EVQLVESGGGLVQPGGSLRLSCAASGFTFSSYAMHWVRQAPGKGLEWVSAISSSGSSKYYADSVKGRFTISRDNSKNTLYLQINSLRAEDTAVYYCAKDESYGWLYAFDLWGQGTLVTVSSGGGGSGGGGSGGGGSDIQMTQSPSSLSASVGDRVTITCRASQSISNYLNWYQQKPGKAPKLLIYAASRLQSGVPSRFSGSGSGTDFTLTISSLQPEDFATYYCQQSYSFPLTFGQGTKVEIK
notes: also called mL1CAM-3R-E7; ID 4 group
B1: binds [1].

B2: G2 (scFv)
scFv (VH-linker-VL): B1 scFv (VH-linker-VL)
notes: also called mL1CAM-3R-G2; ID 4 group
B2: binds [1].

B3: whole IgG1 antibody converted from clone 3R-H8 (antibody, V domains shown)
VH: EVQLVESGGGLVQPGGSLRLSCAASGFTFSDYAMNWVRQAPGKGLEWVSAISSTGSTIYYADSVKGRFTISRDNSKNTLYLQMNSLRAEDTAVYYCAKQSTYFYSYFDVWGQGTLVTVSS
VL: not shown
notes: also called 3R-H8 whole IgG1; mL1CAM-3R-H8 IgG1
In the case of B3, the Kd [2] is reported as 20.5 nM, the Kd [3] is reported as 4.14 nM and the kon [4] is reported as 57700 M⁻¹ s⁻¹. For the same binder, the kon [5] was 462000 M⁻¹ s⁻¹, the koff [6] was 0.000239 s⁻¹ and the koff [7] was 0.00945 s⁻¹.
